Measured values taken from patent US20250313611A1 (VIB VZW, published 2025).

T1: recombinant HKU1 spike protein (HCoV-HKU1, UniProt Q5MQD0 13-1276)
T1 sequence: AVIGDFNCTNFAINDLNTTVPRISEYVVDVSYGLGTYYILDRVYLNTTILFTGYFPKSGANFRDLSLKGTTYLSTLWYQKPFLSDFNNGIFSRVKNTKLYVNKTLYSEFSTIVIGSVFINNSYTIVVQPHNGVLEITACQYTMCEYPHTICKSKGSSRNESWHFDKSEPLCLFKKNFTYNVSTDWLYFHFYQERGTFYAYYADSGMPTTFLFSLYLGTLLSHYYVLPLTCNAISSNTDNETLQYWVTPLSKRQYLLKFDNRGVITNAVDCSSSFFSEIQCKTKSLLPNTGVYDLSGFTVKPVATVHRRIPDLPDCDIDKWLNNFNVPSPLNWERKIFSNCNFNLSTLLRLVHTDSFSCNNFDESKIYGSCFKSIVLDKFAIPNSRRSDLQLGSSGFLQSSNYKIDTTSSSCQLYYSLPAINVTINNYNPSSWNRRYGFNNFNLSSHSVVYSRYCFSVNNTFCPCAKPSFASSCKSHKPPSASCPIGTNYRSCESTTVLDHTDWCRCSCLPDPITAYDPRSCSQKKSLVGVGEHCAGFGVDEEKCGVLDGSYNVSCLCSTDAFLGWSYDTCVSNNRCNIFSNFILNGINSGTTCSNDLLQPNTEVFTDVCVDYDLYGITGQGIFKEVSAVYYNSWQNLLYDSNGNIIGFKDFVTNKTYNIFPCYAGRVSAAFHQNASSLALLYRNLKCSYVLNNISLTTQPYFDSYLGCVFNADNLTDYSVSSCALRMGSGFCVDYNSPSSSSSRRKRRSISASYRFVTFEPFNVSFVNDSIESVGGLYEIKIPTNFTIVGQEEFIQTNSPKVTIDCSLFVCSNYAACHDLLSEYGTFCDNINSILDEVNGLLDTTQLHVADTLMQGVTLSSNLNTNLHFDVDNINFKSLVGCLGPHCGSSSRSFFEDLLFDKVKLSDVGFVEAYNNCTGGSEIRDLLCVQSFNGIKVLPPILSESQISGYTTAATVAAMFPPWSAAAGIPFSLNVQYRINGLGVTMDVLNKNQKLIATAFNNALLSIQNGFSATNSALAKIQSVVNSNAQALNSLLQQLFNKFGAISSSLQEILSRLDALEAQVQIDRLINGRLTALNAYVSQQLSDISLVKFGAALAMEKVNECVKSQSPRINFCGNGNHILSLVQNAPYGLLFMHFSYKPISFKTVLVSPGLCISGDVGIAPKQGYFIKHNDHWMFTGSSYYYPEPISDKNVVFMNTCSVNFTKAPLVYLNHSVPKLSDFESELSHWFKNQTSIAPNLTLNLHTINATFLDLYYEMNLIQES

T2: recombinant MERS-COV spike protein (MERS-CoV, UniProt K9N5Q8 18-1291)
T2 sequence: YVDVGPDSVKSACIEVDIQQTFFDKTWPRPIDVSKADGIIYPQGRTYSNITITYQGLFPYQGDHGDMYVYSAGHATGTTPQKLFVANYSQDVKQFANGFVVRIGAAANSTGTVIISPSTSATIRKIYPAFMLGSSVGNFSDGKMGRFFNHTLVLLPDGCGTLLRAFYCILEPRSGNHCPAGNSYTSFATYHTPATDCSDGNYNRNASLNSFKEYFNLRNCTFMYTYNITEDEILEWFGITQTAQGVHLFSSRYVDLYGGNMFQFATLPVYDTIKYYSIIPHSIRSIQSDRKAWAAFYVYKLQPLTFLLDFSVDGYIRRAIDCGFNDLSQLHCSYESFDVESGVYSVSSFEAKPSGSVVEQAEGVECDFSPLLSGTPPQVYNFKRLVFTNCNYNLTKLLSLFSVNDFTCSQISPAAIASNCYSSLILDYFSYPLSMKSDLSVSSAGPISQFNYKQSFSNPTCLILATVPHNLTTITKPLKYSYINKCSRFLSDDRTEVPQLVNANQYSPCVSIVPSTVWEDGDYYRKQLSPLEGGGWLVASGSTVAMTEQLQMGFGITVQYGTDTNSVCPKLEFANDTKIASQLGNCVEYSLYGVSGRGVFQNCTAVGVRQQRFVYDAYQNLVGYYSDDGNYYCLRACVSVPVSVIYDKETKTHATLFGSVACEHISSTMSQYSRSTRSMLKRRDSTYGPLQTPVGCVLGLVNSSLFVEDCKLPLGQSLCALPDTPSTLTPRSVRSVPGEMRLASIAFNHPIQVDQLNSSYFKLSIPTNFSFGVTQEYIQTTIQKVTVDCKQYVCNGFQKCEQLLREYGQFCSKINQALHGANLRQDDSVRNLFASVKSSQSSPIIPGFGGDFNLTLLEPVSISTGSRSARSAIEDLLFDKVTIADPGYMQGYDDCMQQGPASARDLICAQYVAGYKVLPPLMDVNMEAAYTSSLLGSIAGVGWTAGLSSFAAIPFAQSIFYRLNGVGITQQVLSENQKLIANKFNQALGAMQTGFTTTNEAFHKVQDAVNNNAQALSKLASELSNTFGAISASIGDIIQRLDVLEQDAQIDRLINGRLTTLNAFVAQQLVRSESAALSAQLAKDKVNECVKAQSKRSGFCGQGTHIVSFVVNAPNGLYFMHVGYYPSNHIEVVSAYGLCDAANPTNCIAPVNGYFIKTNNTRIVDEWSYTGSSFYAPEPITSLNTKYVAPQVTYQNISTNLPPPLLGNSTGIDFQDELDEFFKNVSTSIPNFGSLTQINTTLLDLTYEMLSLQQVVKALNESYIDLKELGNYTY


Experiments:
BSA = molecular target: T3, BSA (bovine, UniProt P02769); test: ELISA, coated BSA, dilution series, OD450 [1/3]
T3 construct: coated control antigen
T3 sequence (P02769 25-607 limits assumed): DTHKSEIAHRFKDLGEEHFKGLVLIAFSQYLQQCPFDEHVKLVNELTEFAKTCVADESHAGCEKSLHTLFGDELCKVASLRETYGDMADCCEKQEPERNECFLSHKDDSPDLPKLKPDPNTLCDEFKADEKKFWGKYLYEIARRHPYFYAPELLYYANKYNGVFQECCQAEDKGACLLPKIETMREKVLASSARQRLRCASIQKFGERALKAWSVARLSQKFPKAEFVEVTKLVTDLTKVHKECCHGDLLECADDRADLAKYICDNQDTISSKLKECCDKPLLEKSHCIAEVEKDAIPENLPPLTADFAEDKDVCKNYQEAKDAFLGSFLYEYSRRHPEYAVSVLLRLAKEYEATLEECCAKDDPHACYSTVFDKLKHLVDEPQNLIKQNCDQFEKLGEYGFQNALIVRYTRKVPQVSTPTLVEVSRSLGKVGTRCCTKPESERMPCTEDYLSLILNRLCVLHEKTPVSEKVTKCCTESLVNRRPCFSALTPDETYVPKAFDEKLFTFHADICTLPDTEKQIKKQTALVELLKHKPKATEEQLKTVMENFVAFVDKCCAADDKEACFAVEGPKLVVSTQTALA

[1] = molecular target: T1, recombinant HKU1 spike protein; test: ELISA, periplasmic extract 1/10, heat map of binding (%)
[2] = molecular target: T2, recombinant MERS-COV spike protein; test: as above

Binder	binding result (BSA)	binding result [1]	binding result [2]
VHH R3_DC23 (VHH) VHH: QVQLQESGGGLVQAGDSLTLSCAVSGRIFSTYTMGWFRQAPGKEREFVAAVRWGAGTIYYADSMKGRFTISRDSAKNTVDLQMNSTKPEDTAVYYCGAAYVSKANYGSLWYQDSRRYDYWGQGTQVTVSS	no binding (tested: 10 µg/ml)	no binding (tested: extract 1/10, concentration not given)	no binding (tested: extract 1/10, concentration not given)
VHH R4_DC6 (VHH) VHH: QVQLQESGGGLVQAGDSLRLSCAASGRILSTFTMGWFRQAPGKEREFVAAMRWNGGTKNYADSVKGRFTISRDNANSVVYLQMNSTKPEDTAVYYCAAAYVSKANYGSLWYRTPSLYDYWGQGTQVTVSS	–	no binding (tested: extract 1/10, concentration not given)	no binding (tested: extract 1/10, concentration not given)
VHH R3_C4 (VHH) VHH: QVQLQESGGGLVQAGDSLRLSCAVSGRPFSTYTMGWFRQAPGKEREFVAAMRWSGGTIYYADSVKGRFTISRDNDKNTVNLEMNSLKPEDTAVYYCAAAYVSKANYGSLWYRASGLYDYWGQGTQVTVSS	–	no binding (tested: extract 1/10, concentration not given)	no binding (tested: extract 1/10, concentration not given)
VHH R4_DC16 (VHH) VHH: QVQLQESGGGLVQAGDSLRLSCAVSGRPFSTYTMGWFRQAPGKEREFVAAMRWSGGTIYYADSVKGRFTISRDNAQNTVNLQMNSLKPEDTAVYYCAAAYVSKANYGSSWYRNSGLYDYWGQGTQVTVSS	–	no binding (tested: extract 1/10, concentration not given)	no binding (tested: extract 1/10, concentration not given)
VHH R3_DC2 (VHH) VHH: QVQLQESGGGLVQTGDSLRLSCAVSGRPFSTYTMGWFRQAPGKEREFVASMRWSGGTKYYSDSVKGRFSISRDNDQNTVNLQMNSLKPEDTAVYYCAAAYVSKANYGSLWYRNSGLYDYWGQGTQVTVSS	–	no binding (tested: extract 1/10, concentration not given)	no binding (tested: extract 1/10, concentration not given)
VHH R4_DC9 (VHH) VHH: QVQLQESGGGLVQAGDSLRLSCAASGRIFSTYTMGWFRQAPGMEREFVAAIRWSGSTVYYADSVKGRFTISRDNAKNTVYLQMNSLKPEDTAVYYCAAARVSKANYGTLWYRASGLYDYWGQGTQVTVSS	–	no binding (tested: extract 1/10, concentration not given)	no binding (tested: extract 1/10, concentration not given)
VHH R4_DC13 (VHH) VHH: QVQLQESGGGLVQTGDSLRLSCAVSGRPFSTYTMGWFRQAPGKEREFVASMRWSGGTVYYSDSVKGRFTISRDNDKNTVNLQMNNLKPEDTAVYYCAAAYVSKANYGSFWYRNSDLYDYWGQGTQVTVSS	–	no binding (tested: extract 1/10, concentration not given)	no binding (tested: extract 1/10, concentration not given)
VHH R4_DC20 (VHH) VHH: QVQLQESGGGLVQTGDSLRLSCAVSGRPFSTYTMGWFRQAPGKEREFVASMRWSGGTMNYADSVKGRFTISRDNDQNTVNLQMNSLKPEDTAVYYCAAAYVSKANYGSLWYRNSGLYDYWGQGTQVTVSS	no binding (tested: 10 µg/ml)	no binding (tested: extract 1/10, concentration not given)	no binding (tested: extract 1/10, concentration not given)
VHH R3_DC9 (VHH) VHH: QVQLQESGGGLVQTGDSLRLSCAVSGRPFSTYTMGWFRQAPGKEREFVASMRWSGGTMYYSDSVKGRFTISRDNDKNTVNLQMNSLKPEDTAVYYCAAAYVSKANYGSLWYRNSGLYDYWGQGTQVTVSS	–	no binding (tested: extract 1/10, concentration not given)	no binding (tested: extract 1/10, concentration not given)
VHH R3_DC20 (VHH) VHH: QVQLQESGGGLVQAGDSLRLSCAVSGRPFSTYTMGWFRQAPGKEREFVAAMRWSGGTIYYADSVKGRFTISRDNAQNTVNLQMNSLEPEDTAVYYCAAAYVSKANYGSLWYRNSGLYDYWGQGTQVTVSS	no binding (tested: 10 µg/ml)	no binding (tested: extract 1/10, concentration not given)	no binding (tested: extract 1/10, concentration not given)
